Test results: PMC9747329 (ACS chemical biology, 2022)
Residues, ends and D or L forms follow the SMILES beside them. No end group written: not given here. *: point of attachment. X1 = CN(C)c1ccc2c(-c3cc(C(=O)*)ccc3C(=O)[O-])c3ccc(=[N+](C)C)cc-3oc2c1

How the values were obtained:
[1] = molecular target: T1, nLuc-PTHR1 (Homo sapiens, UniProt Q03431); format: binding; details: for koff / kon: HEK293
T1 sequence (Q03431 27-593): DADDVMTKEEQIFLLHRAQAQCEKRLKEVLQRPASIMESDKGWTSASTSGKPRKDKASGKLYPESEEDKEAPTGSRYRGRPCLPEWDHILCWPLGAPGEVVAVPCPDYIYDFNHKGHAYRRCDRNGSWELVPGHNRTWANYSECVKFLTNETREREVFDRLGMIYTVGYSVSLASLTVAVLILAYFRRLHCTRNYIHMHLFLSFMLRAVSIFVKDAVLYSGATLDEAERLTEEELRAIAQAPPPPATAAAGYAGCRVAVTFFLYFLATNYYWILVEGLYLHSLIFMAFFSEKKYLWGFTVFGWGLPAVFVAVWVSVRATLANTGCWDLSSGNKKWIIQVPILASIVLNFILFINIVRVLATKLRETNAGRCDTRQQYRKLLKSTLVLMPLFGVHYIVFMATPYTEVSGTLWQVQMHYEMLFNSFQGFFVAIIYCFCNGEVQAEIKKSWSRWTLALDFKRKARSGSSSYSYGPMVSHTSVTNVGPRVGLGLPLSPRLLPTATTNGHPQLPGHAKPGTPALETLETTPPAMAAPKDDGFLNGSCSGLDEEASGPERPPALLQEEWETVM

[2] = molecular target: T2, WT-PTHR1 (Homo sapiens, UniProt Q03431); assay: GloSensor cAMP assay in GP2.3 cells; format: cell-based; details: for Emax: HEK293, read-out: cAMP formation %Emax
T2 sequence (Q03431 27-593): T1 sequence (Q03431 27-593)

[3] = molecular target: nLuc-PTHR1 (human parathyroid hormone receptor-1 with NanoLuc luciferase fused to the N-terminus) (human) (UniProt Q03431); assay: FRET or BRET
[4] = molecular target: nLuc-ΔECD-PTHR1 (truncated PTHR1 lacking most of the extracellular domain, preceded by NanoLuc luciferase) (human) (UniProt Q03431); assay: FRET or BRET
[5] = molecular target: nLuc-PTHR1 (human parathyroid hormone receptor-1 with NanoLuc luciferase fused to the N-terminus) (human) (UniProt Q03431)

Molecule | Kd [3] [nM] | koff [3] [s⁻¹] | kon [3] [M⁻¹ s⁻¹] | cAMP formation (GloSensor): %Emax [5] [%] | cAMP formation (GloSensor): EC50 [5] [nM] | other results
CC[C@H](C)[C@H](NC(=O)[C@H](CCCCNC(=O)c1ccc(C(=O)[O-])c(-c2c3ccc(=[N+](C)C)cc-3oc3cc(N(C)C)ccc23)c1)NC(=O)[C@H](C)NC(=O)[C@@H](NC(=O)[C@H](Cc1c[nH]cn1)NC(=O)[C@@H](NC(=O)[C@H](CCC(=O)O)NC(=O)[C@H](C)NC(=O)[C@@H](NC(=O)[C@H](CC(C)C)NC(=O)[C@H](Cc1c[nH]cn1)NC(=O)[C@H](Cc1c[nH]cn1)NC(=O)[C@H](CC(C)C)NC(=O)[C@H](Cc1ccccc1)NC(=O)[C@H](Cc1ccccc1)NC(=O)[C@H](CCCNC(=N)N)NC(=O)[C@H](CCCNC(=N)N)NC(=O)[C@H](CCCNC(=N)N)NC(=O)[C@H](CC(C)C)NC(=O)[C@H](CC(=O)O)NC(=O)[C@H](CCC(N)=O)NC(=O)[C@@H](NC(=O)[C@H](CO)NC(=O)[C@H](CCCCN)NC(=O)CNC(=O)[C@H](CC(C)C)NC(=O)[C@H](CC(N)=O)NC(=O)[C@H](Cc1c[nH]cn1)NC(=O)[C@H](CCSC)NC(=O)[C@H](CC(C)C)NC(=O)[C@H](CCC(N)=O)NC(=O)[C@@H](NC(=O)[C@H](CCC(=O)O)NC(=O)[C@H](CO)NC(=O)[C@@H](NC(=O)[C@@H](N)CO)C(C)C)[C@@H](C)CC)[C@@H](C)CC)[C@@H](C)CC)[C@@H](C)CC)[C@@H](C)O)C(N)=O [PTH[1-12] PTHrP[13-36]] (H-SVSEIQLMHNLGKSIQDLRRRFFLHHLIAEIHTAK(X1)I-NH2; N-terminus assumed) |  |  |  |  |  | koff [1]: 0.0035 ± 0.001 s⁻¹; kon [1]: 800000 ± 50000 M⁻¹ s⁻¹; Emax [2]: 107 ± 5%
CC[C@H](C)[C@H](NC(=O)[C@H](CCCCNC(=O)c1ccc(C(=O)[O-])c(-c2c3ccc(=[N+](C)C)cc-3oc3cc(N(C)C)ccc23)c1)NC(=O)[C@H](C)NC(=O)[C@@H](NC(=O)[C@H](Cc1c[nH]cn1)NC(=O)[C@@H](NC(=O)[C@H](CCC(=O)O)NC(=O)[C@H](C)NC(=O)[C@@H](NC(=O)[C@H](CC(C)C)NC(=O)[C@H](Cc1c[nH]cn1)NC(=O)[C@H](Cc1c[nH]cn1)NC(=O)[C@H](CC(C)C)NC(=O)[C@H](Cc1ccccc1)NC(=O)[C@H](Cc1ccccc1)NC(=O)[C@H](CCCNC(=N)N)NC(=O)[C@H](CCCNC(=N)N)NC(=O)[C@H](CCCNC(=N)N)NC(=O)[C@H](CC(C)C)NC(=O)[C@H](CC(=O)O)NC(=O)[C@H](CCC(N)=O)NC(=O)[C@@H](NC(=O)[C@H](Cc1c[nH]cn1)NC(=O)[C@H](CCCCN)NC(=O)CNC(=O)[C@H](CC(C)C)NC(=O)[C@H](CC(N)=O)NC(=O)[C@H](Cc1c[nH]cn1)NC(=O)[C@H](CCSC)NC(=O)[C@H](CC(C)C)NC(=O)[C@H](CCC(N)=O)NC(=O)[C@@H](NC(=O)[C@H](CCC(=O)O)NC(=O)[C@H](CO)NC(=O)[C@@H](NC(=O)[C@@H](N)CO)C(C)C)[C@@H](C)CC)[C@@H](C)CC)[C@@H](C)CC)[C@@H](C)CC)[C@@H](C)O)C(N)=O [PTH[1-14] PTHrP[15-36]] (H-SVSEIQLMHNLGKHIQDLRRRFFLHHLIAEIHTAK(X1)I-NH2; N-terminus assumed) |  |  |  |  |  | koff [1]: 0.0022 ± 0.0009 s⁻¹; kon [1]: 350000 ± 40000 M⁻¹ s⁻¹; Emax [2]: 106 ± 1%
CC[C@H](C)[C@H](NC(=O)[C@H](CCCCNC(=O)c1ccc(C(=O)[O-])c(-c2c3ccc(=[N+](C)C)cc-3oc3cc(N(C)C)ccc23)c1)NC(=O)[C@H](C)NC(=O)[C@@H](NC(=O)[C@H](Cc1c[nH]cn1)NC(=O)[C@@H](NC(=O)[C@H](CCC(=O)O)NC(=O)[C@H](C)NC(=O)[C@@H](NC(=O)[C@H](CC(C)C)NC(=O)[C@H](Cc1c[nH]cn1)NC(=O)[C@H](Cc1c[nH]cn1)NC(=O)[C@H](CC(C)C)NC(=O)[C@H](Cc1ccccc1)NC(=O)[C@H](Cc1ccccc1)NC(=O)[C@H](CCCNC(=N)N)NC(=O)[C@H](CCCNC(=N)N)NC(=O)[C@H](CCCNC(=N)N)NC(=O)[C@H](CC(C)C)NC(=O)[C@H](CC(=O)O)NC(=O)[C@H](CC(N)=O)NC(=O)[C@H](CC(C)C)NC(=O)[C@H](Cc1c[nH]cn1)NC(=O)[C@H](CCCCN)NC(=O)CNC(=O)[C@H](CC(C)C)NC(=O)[C@H](CC(N)=O)NC(=O)[C@H](Cc1c[nH]cn1)NC(=O)[C@H](CCSC)NC(=O)[C@H](CC(C)C)NC(=O)[C@H](CCC(N)=O)NC(=O)[C@@H](NC(=O)[C@H](CCC(=O)O)NC(=O)[C@H](CO)NC(=O)[C@@H](NC(=O)[C@@H](N)CO)C(C)C)[C@@H](C)CC)[C@@H](C)CC)[C@@H](C)CC)[C@@H](C)O)C(N)=O [PTH[1-16] PTHrP[17-36]] (H-SVSEIQLMHNLGKHLNDLRRRFFLHHLIAEIHTAK(X1)I-NH2; N-terminus assumed) |  |  |  |  |  | koff [1]: 0.0017 ± 0.001 s⁻¹; kon [1]: 530000 ± 30000 M⁻¹ s⁻¹; Emax [2]: 103 ± 4%
AVAEIQLMHQRAKWIQDARRRAFLHKLIAEIHTA-NH2 [LA-PTH, reference compound] |  |  |  |  |  | difference in KD between PTH and LA-PTH ([1]; direct-binding assay, K35^TMR peptides): ~ 5 fold
LA-PTH (long-acting PTH), unlabeled (peptide) |  |  |  |  |  | IC50 [3]: 4.1 nM
PTH(2-34): N-terminally truncated analogue of PTH(1-34) (VSEIQLMHNLGKHLNSMERVEWLRKKLQDVHNF-NH2; UniProt P01270 33-65, looked up, fragment) [reference compound] |  |  |  |  |  | EC50 for cAMP production relative to EC50 of PTH(1-34) (fold higher) ([2]; estimated for the D-peptide): ~ 10 fold
PTH(2-34)K35^TMR (peptide) | 21 | 0.0053 | 250000 |  |  | 
PTH(3-34): N-terminally truncated analogue of PTH(1-34) (SEIQLMHNLGKHLNSMERVEWLRKKLQDVHNF-NH2; UniProt P01270 34-65, looked up, fragment) [reference compound] |  |  |  |  |  | agonist activity, cAMP production via the PTHR1 (in words) [2]: only minimal activity
PTH(3-34)K35^TMR (peptide) | 27 | 0.0094 | 340000 |  |  | 
PTHrP(1-36): N-terminal fragment of parathyroid hormone-related protein, literature comparator [reference compound] |  |  |  |  |  | KD with Ile5 relative to His5 at position 5 (fold lower) ([1]; pH 7.5, K35^TMR-labeled peptides): ~ 5 fold
PTHrP[1-18] PTH[19-34] hybrid, Lys35(TMR) (peptide) |  |  |  | 99 | 0.16 | 

Continued, in another order:

Kd [3] [nM] | koff [3] [s⁻¹] | kon [3] [M⁻¹ s⁻¹] | cAMP formation (GloSensor): %Emax [5] [%] | cAMP formation (GloSensor): EC50 [5] [nM] | Molecule | other results
2.4 | 0.00056 | 230000 |  |  | LA-PTH(1-34)-35K^TMR (peptide) | Kd [4]: 72 nM; koff [4]: 0.0097 s⁻¹; kon [4]: 130000 M⁻¹ s⁻¹
310 | 0.024 | 77000 |  |  | M-PTH(1-14)-15K^TMR (peptide) | Kd [4]: 106 nM; koff [4]: 0.018 s⁻¹; kon [4]: 180000 M⁻¹ s⁻¹
11 | 0.0043 |  |  |  | PTH(1-34)-N33K^TMR (peptide) | 
104 | 0.071 | 440000 |  |  | PTH(1-34)K35^TMR, I5H variant (peptide) | 
4.4 | 0.0035 |  | 107 | 0.55 | PTH[1-12] PTHrP[13-36] hybrid, Lys35(TMR) (peptide) | 
6.1 | 0.0022 | 350000 | 106 | 0.89 | PTH[1-14] PTHrP[15-36] hybrid, Lys35(TMR) (peptide) | 
3.4 | 0.0017 | 530000 | 103 | 0.79 | PTH[1-16] PTHrP[17-36] hybrid, Lys35(TMR) (peptide) | 
26 | 0.0079 | 320000 | 106 | 0.99 | PTH[1-18] PTHrP[19-36] hybrid, Lys35(TMR) (peptide) | 
5 |  |  |  |  | PTHrP(1-34)-His5-Ile-K35^TMR (peptide) | 
49 | 0.029 | 590000 |  | 0.15 | PTHrP[1-12] PTH[13-34] hybrid, Lys35(TMR) (peptide) | 
63 | 0.043 | 680000 | 97 | 0.39 | PTHrP[1-14] PTH[15-34] hybrid, Lys35(TMR) (peptide) | 
95 | 0.041 | 430000 | 105 | 0.48 | PTHrP[1-16] PTH[17-34] hybrid, Lys35(TMR) (peptide) | 
